Here are results for one molecule from patent CN114634565A.

One may read the Kd as the concentration at which binding is half-saturated. Read a low Kd as higher affinity. The EC50 is the concentration at which the effect is half-maximal. Higher therefore signals weaker potency.

Assay [1] addresses 裂谷热病毒Gn蛋白 (GenBank: DQ380208.1) (裂谷热病毒 (Rift Valley fever virus)).
The target is the same in assay [2]. The source holds these as a separate data set.
For assay [3] the target is unchanged. This is another data set of the same source.

B1: 抗裂谷热病毒的单克隆抗体E44 (antibody, V domains shown)
VH: QVQLQQWGEGLVNPSEALSLTCAVYGDSISDDYHWSWIRQPPGKGLEWIGYIFGSSAGTNYNPSLKNRVTISKDTSKNQFSLELTSVTAADTAVYYCARDVTTDRLDVWGPGVPVTVSS
VL: NFMLTQPPSVSADQGQRVTISCSGSSFNVRRYYVSWYQQVPGAAPKLLISDVNKRPSGVSDRFSGSQSGTSATLGISGLRPEDEADYYCSVWDSSLGARVFGGGTRLTVLG
Regarding B1, the Kd in assay [1] was found to be 2.58 nM. The same molecule had an OD值 (OD450nm-OD630nm) in assay [2] of 2.35. This molecule returned a half-maximal effective concentration (EC50) in assay [3] of 2.66 ng/mL.
